The target of one experiment is T1, human recombinant VCAM-1 (human, UniProt P19320 25-698).
T1 construct: Bought recombinant protein (RnD Systems), immobilised on a CM5 chip for SPR; also called hVCAM-1; human VCAM-1
T1 sequence (looked up): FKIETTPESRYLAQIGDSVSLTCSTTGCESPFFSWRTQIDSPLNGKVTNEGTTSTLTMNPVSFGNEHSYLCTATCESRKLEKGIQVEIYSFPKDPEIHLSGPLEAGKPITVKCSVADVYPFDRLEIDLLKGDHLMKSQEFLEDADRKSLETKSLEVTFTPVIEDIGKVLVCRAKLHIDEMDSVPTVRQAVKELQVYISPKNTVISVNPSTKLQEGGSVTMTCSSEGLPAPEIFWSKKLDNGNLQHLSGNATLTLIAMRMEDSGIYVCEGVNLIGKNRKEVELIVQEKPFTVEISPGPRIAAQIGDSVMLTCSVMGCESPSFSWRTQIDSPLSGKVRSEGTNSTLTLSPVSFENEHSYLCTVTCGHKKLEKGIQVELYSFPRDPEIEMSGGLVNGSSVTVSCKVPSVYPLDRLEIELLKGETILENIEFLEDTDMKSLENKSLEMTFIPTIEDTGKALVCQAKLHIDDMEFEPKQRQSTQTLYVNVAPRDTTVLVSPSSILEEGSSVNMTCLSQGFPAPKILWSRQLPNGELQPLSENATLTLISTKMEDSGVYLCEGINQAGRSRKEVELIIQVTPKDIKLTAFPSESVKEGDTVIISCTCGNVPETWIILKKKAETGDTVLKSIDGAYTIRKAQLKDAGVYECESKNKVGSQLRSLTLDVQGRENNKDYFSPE
In words: SPR, Biacore 3000, recombinant hVCAM-1 immobilised on CM5 chip, 1:1 model. On the procedure:
(§1) The affinity of human or murine recombinant VCAM-1 nanobodies was determined by SPR analysis on a Biacore 3000 apparatus. Recombinant mouse ICAM-1 (RnD Systems) was used as a negative control. The recombinant proteins were immobilized on a sensor chip CM5 (Biacore, Uppsala, Sweden) according to the instructions of manufacturer. Serial half-dilutions of the nanodbodies from 50 to 1 nM in PBS with 0.005% Tween-20® were tested. The affinity constants were determined by using adjustment of the standard association model 1:1 (BIAevaluation software package).
For orientation: SPR reads the build-up and loss of mass on a sensor chip optically.

Experiment [1] addresses T2, murine recombinant VCAM-1 (murine, UniProt P29533 25-698).
T2 construct: Bought recombinant protein (RnD Systems), immobilised on a CM5 chip for SPR; also called mVCAM-1; murine VCAM-1
T2 sequence (looked up): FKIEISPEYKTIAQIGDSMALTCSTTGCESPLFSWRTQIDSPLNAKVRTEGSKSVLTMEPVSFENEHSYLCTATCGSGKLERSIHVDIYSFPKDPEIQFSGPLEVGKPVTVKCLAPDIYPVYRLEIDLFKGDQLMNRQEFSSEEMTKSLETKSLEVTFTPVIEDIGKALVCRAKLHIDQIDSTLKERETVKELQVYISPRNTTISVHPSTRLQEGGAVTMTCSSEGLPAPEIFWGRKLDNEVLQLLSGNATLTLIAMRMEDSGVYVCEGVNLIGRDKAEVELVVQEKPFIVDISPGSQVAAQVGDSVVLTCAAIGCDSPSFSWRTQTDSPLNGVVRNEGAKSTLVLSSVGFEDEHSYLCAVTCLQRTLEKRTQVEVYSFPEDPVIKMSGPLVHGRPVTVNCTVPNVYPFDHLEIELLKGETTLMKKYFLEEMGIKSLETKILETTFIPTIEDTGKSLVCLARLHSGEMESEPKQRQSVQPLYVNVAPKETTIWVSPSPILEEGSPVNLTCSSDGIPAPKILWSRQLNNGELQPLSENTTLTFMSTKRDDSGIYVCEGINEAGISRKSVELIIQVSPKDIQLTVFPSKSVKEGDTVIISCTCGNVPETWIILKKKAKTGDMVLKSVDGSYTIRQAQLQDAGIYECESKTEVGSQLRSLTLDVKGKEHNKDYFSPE
In words: SPR, Biacore 3000, recombinant mVCAM-1 immobilised on CM5 chip, 1:1 model. On the procedure:
as §1

For experiment [2], the target named is T3, rabbit VCAM-1 on transfected CHO cells (rabbit, UniProt A0A5F9DFM7 25-739).
T3 construct: whole, on cells
T3 sequence: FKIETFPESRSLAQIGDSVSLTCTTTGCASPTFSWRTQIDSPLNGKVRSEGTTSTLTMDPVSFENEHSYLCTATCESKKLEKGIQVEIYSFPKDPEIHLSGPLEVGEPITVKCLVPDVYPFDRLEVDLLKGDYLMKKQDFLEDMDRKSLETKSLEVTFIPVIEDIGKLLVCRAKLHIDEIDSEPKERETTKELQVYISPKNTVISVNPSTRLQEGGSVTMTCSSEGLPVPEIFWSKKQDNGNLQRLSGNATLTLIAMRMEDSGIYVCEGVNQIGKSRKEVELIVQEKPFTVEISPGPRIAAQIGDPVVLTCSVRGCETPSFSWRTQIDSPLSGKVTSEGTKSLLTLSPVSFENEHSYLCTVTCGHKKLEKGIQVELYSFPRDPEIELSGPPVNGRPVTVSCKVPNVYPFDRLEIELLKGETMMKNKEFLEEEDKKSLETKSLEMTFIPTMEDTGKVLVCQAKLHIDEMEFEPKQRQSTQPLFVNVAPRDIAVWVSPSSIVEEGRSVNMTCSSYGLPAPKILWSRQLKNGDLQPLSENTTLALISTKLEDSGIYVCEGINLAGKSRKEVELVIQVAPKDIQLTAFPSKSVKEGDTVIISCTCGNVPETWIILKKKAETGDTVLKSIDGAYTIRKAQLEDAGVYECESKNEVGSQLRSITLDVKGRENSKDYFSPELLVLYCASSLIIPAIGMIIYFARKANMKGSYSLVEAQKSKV
In words: flow cytometry (PE-A) on CHO cells transiently transfected with rabbit VCAM-1; nanobody, then anti-His-tag mAb and anti-mouse IgG1 [Continuation), panel 3B]. On the procedure:
(§2) 10⁵ CHO cells either transiently transfected or not with a plasmid coding for rabbit VCAM-1 were sequentially incubated with 1 μg of nanobodies, 1 μg of anti-His-tag monoclonal antibody (Serotec) and 200 ng of anti-mouse rat IgG₁ (BD Biosciences). The bond was measured on a FACS Canto II analyzer (BD Biosciences, Franklin Lakes, USA) and the data analysed with the FlowJo software package (TreeStar, Ashland, USA). A negative control was made by omitting the nanobody.

Experiment [3] deals with T3, rabbit VCAM-1 on transfected CHO cells. Description: flow cytometry (PE-A) on CHO cells transiently transfected with rabbit VCAM-1; nanobody, then anti-His-tag mAb and anti-mouse IgG1 [Continuation), panel 8B]. On the procedure:
as §2
(In general: A flow cytometer gives signals particle by particle.)

B1: cAbVCAM1-5 (VHH)
VHH: QVQLQESGGGSVQTGGSLRLSCAASGYTNSIMYMAWFRQAPGKKREGVAAIRFPDDSAYYAGSVKGRFTISHDNAKNTVYLQMNNLNPEDTAMYYCAARSSPYSFAWNDPSNYNYWGQGTQVTVSS
notes: Dromedary nanobody produced with a hexahistidine tag in E. coli; also called anti-VCAM-1 nanobody; not shown: hexahistidine tag
Take B1: the Kd in the experiment with human recombinant VCAM-1 came out at 6.5 nM; in experiment [1], 2 nM.

B2: cAbVCAM1-3 (VHH)
VHH: QVQLQESGGGSVQAGGSLRLSCTASGFTYSSYYMSWVRQAPGKGLEWVSGINVDGSNTYYADSVKGRFTISRDNAKNTLYLQMNSLKSEDTALYYCATGSGRDSYDCYSGSWCPKGQGTQVTVSS
notes: as for B1
On to B2, for which the binding result in experiment [2] is recorded as “no binding (tested: 1 µg per 10^5 cells (single amount))”. The Kd was determined as 9.1 nM with human recombinant VCAM-1 and 2.4 nM in experiment [1].

B3: cAbVCAM1-9 (VHH)
VHH: QVQLQESGGGLVQPGGSLRLSCAASGFTFSSYYMSWVRQAPGKGLEWVSGINVDGSNTYYADSVKGRFTISRDNAKNTLYLQMNSLKSEDTALYYCATGSGRDSYDCYSGSWCPKGQGTQVTVSS
notes: as for B1
For B3, the dissociation constant (Kd) turned out to be 5.3 nM with human recombinant VCAM-1 and 0.9 nM in experiment [1].

B4: cAbVCAM1-8 (VHH)
VHH: QVQLQESGGGLVQPGGSLRLSCAASGFTFSNYYMTWVRRAPGKGLEWVSRINSDGSTLYLPSVKGRFTISRDNAKNTLYLQMNSLKSEDTGWYYCVEGKSSVRGQGTQVTVSS
notes: as for B1
For B4, in experiment [3], the binding result was “no binding (tested: 1 µg per 10^5 cells (single amount))”. In addition, the Kd in the experiment with human recombinant VCAM-1 amounted to 1.4 nM; in experiment [1], 13.2 nM.

As usually defined, the Kd is the free concentration of one partner at which half of the binding sites on the other are occupied at equilibrium, for simple one-to-one binding.

(Values after patent publication US20140255303A1 (UNIVERSITE JOSEPH FOURIER GRENOBLE 1, published 2014).)
